The values below come from the DeepSol protein solubility set.

This data set in a line: soluble on expression in E. coli; label from the status in PepcDB or PDB records.
Consider “SLTTLTVRVFTTAEIIYRKTVIALVCHLNCSRQETVTMNKTITALAIMMASFAANASVLPETPVPFKSGTGAIDNDTVYIGLGSAGTAWYKLDTQAKDKKWTALAAFPGGPRDQATSAFIDGNLYVFGGIGKNSEGLTQVFNDVHKYNPKTNSWVKLMSHAPMGMAGHVTFVHNGKAYVTGGVNQNIFNGYFEDLNEAGKDSTAIDKINAHYFDKKAEDYFFNKFLLSFDPSTQQWSYAGESPWYGTAGAAVVNKGDKTWLINGEAKPGLRTDAVFELDFTGNNLKWNKLAPVSSPDGVAGGFAGISNDSLIFAGGAGFKGSRENYQNGKNYAHEGLKKSYSTDIHLWHNGKWDKSGELSQGRAYGVSLPWNNSLLIIGGETAGGKAVTDSVLITVKDNKVTVQN”, for which the “soluble on expression in E. coli” value was “not soluble”.
As for “SLVHKKIVVPSATDMATRFTQDSFVFDCLSMYYVIDDPWAENCLAAGVNATNVTFGTEQPWDIVLRDFDSGLEKIERSPYLALATNRQEIDAANKQGKLAVIIGTQGSAMVDLEFHRLRTMHRLGMRYFGLAYTGPTMFADGCGESRNAGLSFAGIELIDACNDLGLILDLSHVGHRSREEAVARSRFPVYTHSNSYALNPNDRNTTDETARAIRAKGGIMGICGLPKTVHPENATLNELLDHADHWVKTIDAAHVGFGLDFVEAYKSDRSTMPAASRLWRTRRPDIFGTVEEFHLQDYPLGIASIKQLPNLTQGLFDRGYAEKEVAGIIGGNWLRHFTEVYG”, the “soluble on expression in E. coli” value is recorded as “soluble”.
Turning to “SLVSAQRAIIDPEGKVLINKVNFIDGGLKAPDEVVRKMVRMGTNIIGEPVCGLYPARLIALTSGYSARIPYTIDLDFWMQLLRLGKLWMIDEPLCAFRISNLSWSSRIGEMRHKQFLAFMEEVAADELFQINDLDLFIGRFNSAVQSMTSLMGFKLFAGSAAEKRVIAVQ”, the “soluble on expression in E. coli” value is listed as “not soluble”.
For “SLVSVRCAECKGKLLCGRSKCPLLEKYRFLKEIKIDSRILDPSPPSIFVGRVGYPKVYAGPLVSINADPVYADSPWLWKSIEEVIRLRTSMLRVSRRFRVEDVREEKKELTEMQEMTAAIKPVDVEAEIRKISRKAEFDDVMQPMGYSAIAESIKLAENPKIPDKVEKVYYDDMKAYEALSYLYNHGFSTYYLQKIFSAGILGERKSRKLVPTRWSITAVHSIVGEAIKREIAAYKPIDKTLLFNYEHFGNHFEVILSPENYFFQLVEIWQRKSFWSPKRTGLGLTART”, the “soluble on expression in E. coli” value is on record as “soluble”.
As for “SMAENGDNEKMAALEAKICHQIEYYFGDFNLPRDKFLKEQIKLDEGWVPLEIMIKFNRLNRLTTDFNVIVEALSKSKAELMEISEDKTKIRRSPSKPLPEVTDEYKNDVKNRSVYIKGFPTDATLDDIKEWLEDKGQVLNIQMRRTLHKAFKGSIFVVFDSIESAKKFVETPGQKYKETDLLILFKDDYFAKKNE”, the entry is “soluble”; as for “SMAGCVVIVGSGVIGRSWAMLFASGGFQVKLYDIEQQQIRNALENIRKEMKLLEQAGSLKGSLSVEEQLSLISGCPNIQEAVEGAMHIQECVPEDLELKKKIFAQLDSIIDDRVILSSSTSCLMPSKLFAGLVHVKQCIVAHPVNPPYYIPLVELVPHPETAPTTVDRTHALMKKIGQCPMRVQKEVAGFVLNRLQYAIISEAWRLVEEGIVSPSDLDLVMSEGLGMRYAFIGPLETMHLNAEGMLSYCDRYSEGIKHVLQTFGPIPEFSRATAEKVNQDMCMKVPDDPEHLAARRQWRDECLMRLAKLKSQV”, “soluble”.
With “SMATPNQTACNAESPVALEEAKTSGAPGSPQTPPERHDSGGSLPLTPRMESHSEDEDLAGAVGGLGWNSRSPRTQSPGGCSAEAVLARKKHRRRPSKRKRHWRPYLELSWAEKQQRDERQSQRASRVREEMFAKGQPVAPYNTTQFLMNDRDPEEPNLDVPHGISHPGSSGESEAGDSDGRGRAHGEFQRKDFSETYERFHTESLQGRSKQELVRDYLELEKRLSQAEEETRRLQQLQACTGQQSCRQVEELAAEVQRLRTENQRLRQENQMWNREGCRCDEEPGT”, the “soluble on expression in E. coli” value is on record as “soluble”.
As for “SMGNPQLISAGAKFRAAVAAEQPLQVVGAITAYAAKMAEAVGFKAVYLSGGGVAANSLGIPDLGISTMDDVLVDANRITNATNLPLLVDIDTGWGGAFNIARTIRSFIKAGVGAVHLEDQVGQKRCGHRPGKECVPAGEMVDRIKAAVDARTDETFVIMARTDAAAAEGIDAAIERAIAYVEAGADMIFPEAMKTLDDYRRFKEAVKVPILANLTEFGSTPLFTLDELKGANVDIALYCCGAYRAMNKAALNFYETVRRDGTQKAAVPTMQTRAQLYDYLGYYAYEEKLDQLFNQGRN”, the entry is “soluble”.
As for “SMGTKLKKSNNDITIFSENEYNEIVEMLRDYSNGDNLEFEVSFKNINYPNFMRITEHYINITPENKIESNNYLDISLIFPDKNVYRVSLFNQEQIGEFITKFSKASSNDISRYIVSLDPSDDIEIVYKNRGSGKLIGIDNWAITIKSTEEIPLVAGKSKISKPKITGSERIMYRYKTRYSFTINKNSRIDITDVKSSPIIWKLMTVPSNYELELELINKIDINTLESELLNVFMIIQD”, the entry is “soluble”; as for “SNAEKAVLIGEKEADITFVTWGSQKGPILDVIEDLKEEGISANLLYLKMFSPFPTEFVKNVLSSANLVIDVESNYTAQAAQMIKLYTGIDIKNKILKYNGRHMTEDEILKSAKEILNK”, “soluble”.
Consider “SNAEWESITPPVVDAPAVVEFFSFYCPPCYAFSQTMGVDQAIRHVLPQGSRMVKYHVSLLGPLGHELTRAWALAMVMKETDVIEKAFFTAGMVEKRLHSPDDVRRVFMSATGISRGEYDRSIKSPAVNDMVALQERLFKEYGVRGTPSVYVRGRYHINNAAFGAFSVENFRSRYAAVVRKLLAGNPDAD”, for which the “soluble on expression in E. coli” value is given as “soluble”.
With “SNAHKGTLYVVATPLGNLDDMTFRAVNTLRNAGAIACEDTRRTSILLKHFGIEGKRLVSYHSFNEERAVRQVIELLEEGSDVALVTDAGTPAISDPGYTMASAAHAAGLPVVPVPGA”, the “soluble on expression in E. coli” value is listed as “soluble”.
For “SNAMEHKIVHVGDIPVANDKPFTLFAGMNVLESRDLAMQICEHYVKVTDKLGIPYVFKASFDKANRSSVHSYRGPGLEEGMKIFQELKETFGVKIITDVHTEAQAQPVADVVDVIQLPAFLARQTDLVEAMAKTGAVINVKKPQFMSPGQVGNIVEKFAECGNDKVILCERGSCHGYDNLVVDMLGFGVMKQASNGSPIIFDVTHSLQMRDPSGAASGGRREQTVELAKAGLATGIAGLFIEAHPNPDKARCDGPSALPLDKLEPFLAQMKALDDLIKSFAHIDIR” the value was “soluble”.
With “SNAMIYPYKEKKPKIASSAFIADYVTITGDVYVGEESSIWFNTVIRGDVSPTIIGDRVNVQDQCTLHQSPQYPLILEDDVTVGHQVILHSCHIKKDALIGMGSIILDGAEIGEGAFIGAGSLVSQGKKIPPNTLAFGRPAKVIRELTAEDRKDMERIRTQYVEKGQYYKSLQK”, the “soluble on expression in E. coli” value is “soluble”.
“SNAMRKDETSNTSPDISVAQPASALRYHLRPPRRNDGAAIHQLVSECPPLDLNSLYAYLLLCEHHAHTCVVAESPGGRIDGFVSAYLLPTRPDVLFVWQVAVHSRARGHRLGRAMLGHILERQECRHVRHLETTVGPDNQASRRTFAGLAGERGAHVSEQPFFDRQAFGGADHDDEMLLRIGPFTHPPH”: the “soluble on expression in E. coli” value is recorded as “soluble”.
As for “SNAMRNKNMSTIYQTSATASAGRNGVVSTEDKLLELNLSYPKEMGGSGTATNPEQLFAVGYAACFSNAILHVAREAKVALKEAPVTATVGIGPNGQGGFALSVALAAHIALEDEQARQLVTVAHQVCPYSNAVRGNIDVQVSVNGLAL”, the entry is “soluble”.
Consider “SNAMSLEKLDTNTFEQLIYDEGKACLVMFSRKNCHVCQKVTPVLEELRLNYEESFGFYYVDVEEEKTLFQRFSLKGVPQILYFKDGEYKGKMAGDVEDDEVEQMIADVLED”, for which the “soluble on expression in E. coli” value was “soluble”.
For “SNANVGVFVLMHGDSTASSMLKTAQELLGTSIGTAMNMPLTMEVQTMYEQLRNQVITQKESLNNGILLLTDMGSLNSFGNMLFEETGIRTKAITMTSTMIVLEAIRMASVGRSLEDIYQNIQLSFESVVREQFRSSLQK” the value was “soluble”; for “SNASNAVKRKGVEVIIALDISNSMLAQDVQPSRLEKAKRLISRLVDELDNDKVGMIVFAGDAFTQLPITSDYISAKMFLESISPSLISKQGTAIGEAINLATRSFTPQEGVGRAIIVITDGENHEGGAVEAAKAAAEKGIQVSVLGVGMPEGAPIPVEGTNDYRRDREGNVIVTRLNEGMCQEIAKDGKGIYVRVDNSNSAQKAISQEISKMAKSDVE”, “soluble”.
“SNRFIAVFSDITRHKQTEEDLLRSEQHYRLLHETMLQGVVYQDASGKIISMNPAAERILGKTPAEFLGSSSVGEEYLTIREDGSMFPGLEHPAMVSLRTGQKVQGVVMGVYNPRENFYRWININAVPIFRTGEDRPFQVYTLFDDI”: the “soluble on expression in E. coli” value is listed as “not soluble”.
As for “SNRLDGKVAIITGGTLGIGLAIATKFVEEGAKVMITDRHSDVGEKAAKSVGTPDQIQFFQHDSSDEDGWTKLFDATEKAFGPVSTLVNNAGIAVNKSVEETTTAEWRKLLAVNLDGVFFGTRLGIQRMKNKGLGASIINMSSIEGFVGDPSLGAYNASKGAVRIMSKSAALDCALKDYDVRVNTVHPGYIKTPLVDDLPGAEEAMSQRTKTPMGHIGEPNDIAYICVYLASNESKFATGSEFVVDGGYTAQ”, the entry is “soluble”.
As for “SPEIMKNLSNNFGKAMDQCKDELSLPDSVVADLYNFWKDDYVMTDRLAGCAINCLATKLDVVDPDGNLHHGNAKDFAMKHGADETMAQQLVDIIHGCEKSAPPNDDKCMKTIDVAMCFKKEIHKLNWVPNMDLVIGEVLAEV”, the entry is “soluble”; as for “SPFDANKLYCSEVLAILLQDNDENRELLGELDGIDVLLQQLSVFKRHNPSTAEEQEMMENLFDSLCSCLMLSSNRERFLKGEGLQLMNLMLREKKISRSSALKVLDHAMIGPEGTDNCHKFVDILGLRTIFPLFMKSPRKIKKVGTTEKEHEEHVCSILASLLRNLRGQQRTRLLNKFTENDSEKVDRLMELHFKYLGAMQVADKKIEGEKHDMVRRGEIIDNDTEEEFYLRRLDAGLFVLQHICYIMAEICNANVPQIRQRVHQILNMRGSSIKIVRHIIKEYAENIGDGRSPEFRENEQKRILGLLENF”, “not soluble”; as for “SPLHWLQWERGGVGSDQDLGCHWLPLPTGSDGGDAVEYNPNLLDDPQWPCGKHKRVLIFASYMTTVIEYVKPADLKKDMNETFREKFPHIKLTLSKIRSLKREMRNLSEECSLEPVTVSMAYVYFEKLVLQGKLNKQNRKLCAGACVLLAAKISSDLRKSEVKQLIDKLEERFRFNRKDLIGFEFTVLVALELALYLPENQVLPHYRRLTQQF”, “not soluble”.
Turning to “SPSAQELKEQGNRLFVGRKYPEAAACYGRAITRNPLVAVYYTNRALCYLKMQQPEQALADCRRALELDGQSVKAHFFLGQCQLEMESYDEAIANLQRAYSLAKEQRLNFGDDIPSALRIAKKKRWNSIEERRIHQESELHSYLTRLIAAERERELEECQRNHEGHEDDGHIRAQQACIEAKHDKYMADMDELFSQVDEKRKKRDIPDYLCGKISFELMREPCITPSGITYDRKDIEEHLQRVGHFNPVTRSPLTQEQLIPNLAMKEVIDAFISENGWVEDY”, the “soluble on expression in E. coli” value is “soluble”.
Take “SPVYGVKAVPVERIRANSYNPNVTAPPEMRLLELSIWEDGYTMPCVCYYIEKEDVYELVDGYHRYKVMMTSPRIYKRENGLLPVTVIRKDLAERMASTIRHNRARGMHK”: the “soluble on expression in E. coli” value is reported as “soluble”.
For “SQKLADFKLPQFFNYPPYFTLQPVRDTREKQIQLWKELILDYCKSQKIFLIGVEEDFPLFSNSAIDRSLSHEARETFLSAIVGEGRAEWLDKGHRKCLILWHRIQDWADIVLQFVRDNGLEDSVMTVEEIRSGTESLGTELQGIDRTILMRALKLLENKGKLALFKGTSADDEGVKFSV” the value was “soluble”.
